# From IntAct's records for PubMed 19542283
# B1: Chemotaxis protein CheA (Escherichia coli (strain K12)), P07363-2 (parent)
# chain: MQEQLDAYKQSQEPDAASFDYICQALRQLALEAKGETPSAVTRLSVVAKSEPQDEQSRSQSPRRIILSRLKAGEVDLLEEELGHLTTLTDVVKGADSLSAILPGDIAEDDITAVLCFVIEADQITFETVEVSPKISTPPVLKLAAEQAPTGRVEREKTTRSNESTSIRVAVEKVDQLINLVGELVITQSMLAQRSSELDPVNHGDLITSMGQLQRNARDLQESVMSIRMMPMEYVFSRYPRLVRDLAGKLGKQVELTLVGSSTELDKSLIERIIDPLTHLVRNSLDHGIELPEKRLAAGKNSVGNLILSAEHQGGNICIEVTDDGAGLNRERILAKAASQGLTVSENMSDDEVAMLIFAPGFSTAEQVTDVSGRGVGMDVVKRNIQKMGGHVEIQSKQGTGTTIRILLPLTLAILDGMSVRVADEVFILPLNAVMESLQPREADLHPLAGGERVLEVRGEYLPIVELWKVFNVAGAKTEATQGIVVILQSGGRRYALLVDQLIGQHQVVVKNLESNYRKVPGISAATILGDGSVALIVDVSALQAINREQRMANTAA
# partner: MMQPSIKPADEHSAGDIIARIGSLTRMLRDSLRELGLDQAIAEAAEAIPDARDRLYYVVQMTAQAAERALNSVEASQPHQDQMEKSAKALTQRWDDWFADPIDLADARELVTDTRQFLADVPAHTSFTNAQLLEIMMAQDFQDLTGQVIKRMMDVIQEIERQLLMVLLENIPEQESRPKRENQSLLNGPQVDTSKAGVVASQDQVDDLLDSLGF
# Variants of: B1
# Conditions: with chez_ecoli cheZ
row,Variant,effect of a mutation on the interaction
1,Y21S,disrupting interaction strength
2,I22A,decreasing interaction strength
3,I22S,disrupting interaction strength
4,L26A,disrupting interaction strength
5,L26S,disrupting interaction strength
